Reference: publication PMC9289880 (Journal of Medicinal Chemistry, 2022)
Bridges are numbered along the chain shown (N, C = ends).

Target: KRAS^G12D (GDP) (UniProt P01116 1-189, G12D)
Test: cell-based or functional assay

KRAS^G12D SOS GNE IC50 (TR-FRET, SOS-catalysed Bodipy-GDP/GTP exchange): 54 nM
Binder: Ac-RRCPLYISYDPVCRR-NH2 (disulfide 3-13) [peptide 2 (KRpep-2)]
